Assay [1] has as its target mouse Claudine18.2 (mouse) (UniProt P56857). Put plainly: FACS on CHOK1-m18.2 cells.
For assay [2], the target named is Rhesus monkey Claudine18.2 (Rhesus monkey) (UniProt F6YQY3). Put plainly: FACS on CHOK1-rh18.2 cells.

B1: Ab35 (antibody, V domains shown)
VH: DVFLQESGPGLVKPSQSLSLTCTVTGYSITSDYAWNWIRQFPGNKLEWVTYIGYSGTTSYNPSLKSRISITRDTSKNQFFLQLNSVSTEDTATYYCVRRGSYYGSYWFFDVWGAGTTVTVSS
VL: QVVLSQSPAILSASPGEKVTMTCRASSSVSYMHWYQQKPGSSPKPWIYATSNLASGVPPHFSGSGSGTSYSLTISRVEAEDAATYYCQQWTSNPPTFGGGTKLEIK
With B1, the FACS MFI in assay [1] was 9610; in assay [2] it was 8340.

B2: Ab01 (antibody, V domains shown)
VH: DVQLQESGPGLVKPSQSLSLTCSVTGYSITSGYYWNWIRQFPGNKLEWMGYITYDGSNNYNPSLKNRISITRDTSKNQFFLKLNSVTTEDAATYFCARDPNYYGTTLPAWFVYWGQGTLVTVSA
VL: DIVVTQSHKFMSTSVGDRVSITCKASQDVGTAVAWYQQKPGQSPKLLIYWASTRHTGVPDRFTGSGSGTDFTLTISNVQSEDLTDYFCQQYSSYVTFGAGTKLELK
Regarding B2, the FACS MFI came out at 12700 in assay [1] and 8380 in assay [2].

B3: Ab11 (antibody, V domains shown)
VH: EVMLVESGGDLVKPGGSLKLSCAASGFTFSRYTMSWVRQTPEKRLEWVATVSVGSGNTYYLDSVKGRFTISRDNAKNTLFLQMNSLRSEDTALYYCTRLGQTQRNAVDYWGQGTSVTVSS
VL: DIVMTQSPSFLSVSAGEKVTMSCKSSQSLFNGGNQKNYLAWYQQKPGQPPKLLIYGASTRDSGVPDRFTGSGSGTDFTLTISNVQAEDLAIYFCQNDHSFPLTFGAGTKLELK
For B3, the FACS MFI in assay [1] was 11200; in assay [2], 7800.

B4: Ab26 (antibody, V domains shown)
VH: EVMLVESGGGLVKPGGSLKLSCTASGFTFRSYTMSWVRQTPEKRLEWVATITGGGGNTYFLDSVKGRFTFSRDNAKNALYLQMNSLRSEDTALYYCARLGQTQRNAMDYWGQGTSVTVSS
VL: DIVMTQSPSSLSVSAGEKVTMSCKSSQSLLNSGNQMNYLAWYQQKPGQPPKLLIYGASTRESGVPDRFTGSGSGTDFTLTISSVQAEDLAIYYCQNDHTYPLTFGAGTKLEL
Consider B4, for which the results for the FACS MFI in assay [1] and in assay [2] were 15700 and 8290, respectively.

B5: Ab34 (antibody, V domains shown)
VH: EVLLQQSGPELVKPGASVKIPCKASGYTFSDYNMDWVKQSHGKSLEWIGHINPNNDNTIYNQKFKGKATLTVDKSSNTAYMDLRSLSSEDTAVYYCARGAYYGNSMDYWGQGTSVTVSS
VL: DIVMTQSPSSLTVTAGERVTMSCKSSQSLLNGGNQRNYLTWYQQKPGQSPKLLIYWASTWESGVPDRFTGSGSGTDFTLTISSVQAEDLAVYYCQNAYFYPYTFGGGTKLEIK
For the molecule B5, the results for the FACS MFI in assay [1] and in assay [2] were 10700 and 6720, respectively.

B6: Ab06 (antibody, V domains shown)
VH: EVQLVASGGGLVKPGGSLKLSCAASGITFRSYAMSWVRQTPEKRLEWVATITDGGSYIFYPDNVKGRFTISGDHAKNNLYLQMSHLKSEDTALYFCVRLYYGNSFAYWGQGTLVTVSA
VL: DIVMTQSPSSLTVTAGEKVTLNCKSSQSLFNSGNQKNYLTWYQQKPGQPPKLLIYWASTRESGVPDRFTGSGSGTDFTLTFSSVQAEDLAVYYCQNAYIYPFTFGSGTKLEIK
As to B6, the values for the FACS MFI in assay [1] and in assay [2] were 13200 and 14000, respectively.

B7: Ab27 (antibody, V domains shown)
VH: QVQLQQSGAELVRPGSSVKISCKASGYAFSNYWMNWVKQRPGQGLEWIGQIYPGNGDTNYNGKFKGKATLTADKSSTTAYIQLSSLTSEDSAVYFCTRIYYGNSFAYWGQGTLVTVS
VL: DIVMTQSPSSLTVTAGERVTMSCKSSQSLLNSGNQKNYLTWYQQKPGQPPKLLIYWASTRESGVPDRFTGSGSGTDFTLTISRVQAQDLAVYYCQNDYYYPLTFGAGTKLELK
Consider B7, for which the values for the FACS MFI in assay [1] and in assay [2] were 8240 and 9240, respectively.

B8: Ab05 (antibody, V domains shown)
VH: DVKLVESGEDLVKPGGSLKLSCAASGFTFSNYAMSWVRQTPEKRLEWVAYVSSGGDYIYYADTVKGRFIISRDNARNTLYLQMNSLRSEDTAMYYCARVYFGNSLDYWGQGTTLTVSS
VL: DIVMTQSPSSLTVTAGEKVTLSCKSSQSLLNGGNQKNYLTWYQQRPGQPPKLLIYWASTRESGVPDRFTGSGSGTDFTLIISSVQAEDLAVYYCQNDYYYPWTFGGGTKLEIK
On to B8, for which the values for the FACS MFI in assay [1] and in assay [2] were 12500 and 9850, respectively.

B9: Ab12 (antibody, V domains shown)
VH: EVMLVESGGGLVKPGGSLKLSCAASGFTFSSYTMSWVRQTPEKRLEWVATIIGGYGNTYYADSVKGRFTISRDSAKNTLYLQMLSLRSEDTALYYCTRLGQTQRNAMDYWGQGTSVTVSS
VL: DILMTQSPSSLSVSAGEKVTMSCKSSQSLLNSGNQRNYLAWYQQKPGQPPKLLIYGASTRESGVPDRFTGSGSGTDFTLTISSVQAEDLAVYYCQNDYYYPLTFGAGTKLELK
Consider B9, for which the values for the FACS MFI in assay [1] and in assay [2] were 13100 and 7610, respectively.

B10: Ab07 (antibody, V domains shown)
VH: EVQLQQSGPELVKPGASVKISCKASGYSFTDYFMNWVKQSHGKGLEWIGRINPYNGDTFYNQKFKGKATLTVDKSSSTAHMELLSLTSEDFAVYYCALYDGYWGAFVYWGQGTLVTVSA
VL: DIQMTQSPASLSVFVGETVTITCRASENIYSNLAWYQQKQGKSPQLLVYAATNLADGVPSRFSGSGSGTQYSLKINSLQSEDFGSYYCQHFWGTPLTFGAGTKLELK
B10: the FACS MFI is 15000 in assay [1] and 9040 in assay [2].

B11: Ab25 (antibody, V domains shown)
VH: EAQLQQSGPELVKPGASVKIFCKASGYTFTDYYINWVKQSHGKSLEWIGDINPNNGGTTYNQKFKGKATLTVDKSSSTASMELRRLTSEDSSVYYCARRDAMDYWGQGTSVTVSS
VL: DIVMTQSQKFMSTTVGDRVSITCTASQNVGPAVAWYQQKPGQSPKLLIYSASRRFTGVPDRFTGSGSGTVFTLTINNVQSEDLADYFCQQYISYPLTFGAGTKLELK
B11: the values for the FACS MFI in assay [1] and in assay [2] were 23400 and 12000, respectively.

B12: Ab37 (antibody, V domains shown)
VH: EVKLEESGGGLVQPGGSMKLSCVASGFTFSNYWMNWVRQYPEQGLEWVAQIRLNSDNYATHYAESVKGRFTISRDDSRSTVYLQMNNLRAEDTGIYYCTGGGEYWGQGTTLTVSS
VL: DIVMTQSQKFMSTTIGDRVSITCKASQNVDTAVAWYQQKPGQSPKLLIYSASTRYTGVPDRFTGSGSGTDFTLTISNMQSEDLADYFCQQYISYQLTFGAGTKLELK
With B12, the FACS MFI amounted to 18600 in assay [1] and 16700 in assay [2].

B13: Ab13 (antibody, V domains shown)
VH: EVRLVESGGGLVKPGGSLKLSCAGSGFTFSSYTMSWVRQTPEKRLEWVATITIGVNIYYLDSVKGRFTISRDNAKNTLYLQMNSLRSEDTALYYCTRLGQTQRNAMDYWGQGTSVTVSS
VL: DIVMTQSPTSLSVSAGEKVTMTCKSSQSLLNSGNQKNYLAWYQEKPGQPPKLLIYGASTRESGVPDRFTGSGSGTDFTLTISSVQAEDLAVYYCQNNHFYPLTFGAGTKLELK
B13: the FACS MFI worked out at 12500 in assay [1] and 5630 in assay [2].

B14: Ab30 (antibody, V domains shown)
VH: QVQLKESGPGLVAPSQSLSITCTVSGFSLTKFGVNWVRQPPGKGLEWLGAIWGDGSTNYHSALISRLSINKDNSKSQVFLKLSSLQNVDTATYYCAKSGYGNAMDYWGHGTSVTVSS
VL: DIVMTQSPSSLTVTTGEKVTLNCKSSQSLLNSGNLKNYLTWYQQRPGQPPKLLIYWASTRESGVPYRFTGSGSGTDFTLTISNVQAEDLAIYYCQNDYFFPFTFGSGTKLEIK
Take B14: the FACS MFI turned out to be 9610 in assay [1] and 10500 in assay [2].

B15: Ab31 (antibody, V domains shown)
VH: QIQLAQSGPELKKPGETVKISCKASGYSFTNYGMNWVKQAPGKGLKWMGWINTYSGETKYADDFKGRFDFSLETSARTAYLQIKNLKIEDTATYFCARRDAMDYWGQGTSVTVSS
VL: DIVMTQAAPSVPVTPGESVSISCRSSKSLLNSNGNTYLYWFLQRPGQSPQLLIYRMSNLASGVPDRFSGSGSGTAFTLRISRVEAEDVGVYYCMQHLEFPFTFGSGTKLEIK
For the molecule B15, the FACS MFI in assay [1] was 7790; in assay [2], 8010.

B16: Ab04 (antibody, V domains shown)
VH: EVQLQQSGPELVKPGASVKMSCMASGYTFTDYNIHWVKRSHGSRLEWIGYISPISGGAGYNQKFMDKATLTVDKSSNTAYMELRSLTSEDSAVYYCTRGDYWGQGTTLTVSS
VL: DIVMTQSPSSLAVTVGEKVTMSCKSSQSLLNSGNQKNYLTWYQQKPGQPPKLLIYWASTRKSGVPDRFTGSGSGTDFTLTISSVQAEDLGIYYCLNDYGFPLTFGAGSKLELK
Take B16: the FACS MFI in assay [1] was 8440; in assay [2] it was 2130.

B17: Ab29 (antibody, V domains shown)
VH: EVLLQQSGPELVKPGASVKIPCKASGYTLTDHSMDWVKQSHGKSLEWIGNILPNNGGNIYNQKFRGKATLTVDKSSSTAYMELRSLTSEDTAVYNCARGHYGNSFAYWGQGTLVIVS
VL: DIVMTQSPSSLTVRAGEKVTIYCKSSQSLFNSGNQKNYLTWYQQKPGQPPKLLIYWASTRESGVPHRFTGSGSGTDFTLTISSMQADDLATYYCQNGYFFPYTFGGGTKLEIK
With B17, the figures for the FACS MFI in assay [1] and in assay [2] were 21900 and 25700, respectively.

B18: Ab03 (antibody, V domains shown)
VH: EVQLQQSGPELVKPGASVKIACKASGYTFTDYNMDWVKQSHGKSLEWIGNINSYYGGTIYNQKFKGKATLTVDKSSSTAYMVLRSLTSEDNAVYYCARPHLGNALDYWGQGTSITVSS
VL: DIVVTQSPSSLTVTPGEKVTMSCKSSQSLFNSGNQKNYLSWYQQNPGQPPKLLIYWASTRQSGVPDRFTGSGSGTDFTLTISSVQAEDLAGYYCQNDYIFPLTFGAGTKLELK
Consider B18, for which the FACS MFI in assay [1] stood at 2970; in assay [2] it was 1430.

B19: Ab09 (antibody, V domains shown)
VH: EVQLQQSGPELVKPGTSVKMSCKASGYTFTDYNMHWVKLSHGKSLEWIGYINPNNGGTIYNQRFKGKATLTVNKSSRTAYMDLRSLTSEDSAVYYCARQGYYGNSMDYWGQGNSVTVSS
VL: DIVMTQSPSSLTVTPGERVTMSCKSSQSLLNGGNQRNYLTWYQQKPGQPPKLLIYWASTRESGVPDRFAGSGSGTDFTLTISRVQAEDLSFYYCQNSYFYPFTFGSGTKLDLR
For the molecule B19, the FACS MFI in assay [1] worked out at 12600; in assay [2] it was 8100.

For the origin of these results see patent publication US20230095569A1.
